From the nanobody polyreactivity screen of Harvey et al. (2022)

Experiment: yeast display, Sf9 membrane polyspecificity reagent, FACS + sequencing; frameworks hold sequencing errors
In short: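 Galactose-induced (36–48 hours) yeast carrying a synthetic nanobody display library were exposed to 10% biotinylated, detergent-solubilized Sf9 membrane reagent at 4 °C for 1 hour. FACS followed streptavidin microbead enrichment, using low and high (top ~1%) gates for expression (anti-HA) and reagent binding (streptavidin). Colony PCR, MiSeq 2 × 250 sequencing and CDR-length filtering followed. Labels for polyreactivity reflect the gate of origin.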

Sequence | polyreactivity (PSR sort gate)
QVQLLESGGGLVQAGGSLRLSCAASGFTLTRNAMGWYRQAPGKEREFVAAISWSGGSTYADSVKGRFTISRDNAKNTVFLQMNSLKPEDTAVYYCAADRYNGRYGYWGQGTQVTVSS | high polyreactivity
QVQLLESGGGLVQAGGSLRLSCAASGGTFYSYAMGWYRQAPGKEREFVATITRRSGSTYYADSVKGRFTISRDNAKNTVYLQMNSLKPEDNAVYYCAATKYKLLFIHFRYDYWGQGTQVTVSS | high polyreactivity
QVQLLESGGGLVQAGGSLRLSCAASGIIFLDNAMGWYRQAPGKERELVADITSSGGSTYYADSVKGRFTISRDNAKNTVSLQMNSLKPEDTAVYYCAATRPSYNDAESDYWGQGTQVTVSS | low polyreactivity
QVQLLESGGGLVQAGGSLRLSCAASGITFAKYAMGWYRQAPGKEREFVAAISTSGGSTYYADSVKGRFTISRDNAKNTVYLQMNSLKPEDTAVYYSNVETYIWYFLRYYNYWGQGTQVTVSS | high polyreactivity
QVQLLESGGGLVQAGGSLRLSCAASGITLYRYTMGWYRQAPGKEREFVAAISRSGGSTYYADSVKGRFTLSRDNAKNTVYFQMKSLKPDDTAVYYCAAPWYEKTTRPYGSWGQGTQVTVSS | high polyreactivity
QVQLLESGGGLVQAGGSLRLSCAASGLIFERYAMGWYRQAPGKERELVAAITRRGGSTYDADSVKGRFTISRDNAKNTVYFQMNSLKPEDTAVNYCAAGRPQDTEFDYWGLGTQVTVSS | high polyreactivity
QVQLLESGGGLVQAGGSLRLSCAASGLIFGENAMGWYRQAPGKERELVAAISRRAGITYYADSVKGRFTISRDNAKNTVYLQMNSLKPEDTAVYYCAAQYYLYRSRFDYWGQGTQVTVSS | high polyreactivity
QVQLLESGGGLVQAGGSLRLSCAASGLIFRGNDMGWYRPAPGKERELVAGINSSGSTNYADSVKGRFTISRDNAKNTVYLQMNSLKPEDTAVYDCAARAIVSFDYWGQGTQVTVSS | low polyreactivity
QVQLLESGGGLVQAGGSLRLSCAASGLIVSEYAMGWYRQAPGKERELVAAIRSDGGSTYYADSVKGRFTISRDNAKNTVYLQMNSLKPEDTAVYYCNAPYRRSAKFRRYGYDYWGQGTQVTVSS | high polyreactivity
QVQLLESGGGLVQAGGSLRLSCAASGLTFPLYAMGWYRQAPGKERELVAAINWSGGSTYYADSVKGRFTISRDKAKNTVYLQMNSLKPEDTAVYYCAAARSSLYYYWGQGTQVTVSS | high polyreactivity
QVQLLESGGGLVQAGGSLRLSCAASGLTYAYNTMGWYRQAPGKERELVADISWSGGRTYYADSVKGRFTISRDNAKNTVYLQMNSLKPEDTAVYYCAAEFWHQYGAYDYWGQGTQVTVSS | low polyreactivity
QVQLLESGGGLVQAGGSLRLSCAASGNTFTYYAMGWYRQAPGKERELVAAISDDGNTNYADSVMGRFTISRDNAKKTVYSQMNSLKPEDTAVYYCNADSYPSLNKRGYDYWGQGTQVTVSS | low polyreactivity
QVQLLESGGGLVQAGGSLRLSCAASGRIFGSNAMGWYRQAPGKERELVAAITRGGSTNYADSVKGRFTISRDNAKNTVYLQMNSLKPEDTAVYYCAAVPFGEVDYWGQGTQVTVSS | high polyreactivity
QVQLLESGGGLVQAGGSLRLSCAASGRIFTPYAMGWYRQAPGKERELVAVIRDGSTYYADSVKGRFTISRDNAKNTVYLQMNSLKPEDTAVYYCAADVGYSPYFFGGTRYYKYDYWGQGTQVTVSS | low polyreactivity
QVQLLESGGGLVQAGGSLRLSCAASGRIFVKYAMGWYRQAPGKERELVAAISKSGGSTYYADSVKGRFTISRDNAKNTVYLQMNSLKPEDTAVYYCAPRSRDQYSGSYRLDYWGQGTQVTVSS | low polyreactivity
QVQLLESGGGLVQAGGSLRLSCAASGRIFVVNAMGWYRQAPGKERELVATITRGASTYADSVKGRFTISRDNAKNTVYLQMNSLKPEDTAVYYCAAAKRPQVVRYDWTKLEYWGQGTQVTVSS | high polyreactivity
QVQLLESGGGLVQAGGSLRLSCAASGRIFVYYAMGLYRKAPGKERELVATITFGGGSTYYADSVKGRFTISRDNAKNNVYLQMNSLKQEDTAVYYCNAPGFAWYTTKYDYCGQGTQVTVSS | low polyreactivity
QVQLLESGGGLVQAGGSLRLSCAASGRTFRYYAMGWYRQAPGKERELVAAITANGGSTYYADSVKGRFTISRDNAKNTVYLQMNSLKPEDTAVYYCAAKYNTKLYYWGQGTQVTVSS | high polyreactivity
QVQLLESGGGLVQAGGSLRLSCAASGRTFYRYAMGWYRKAPGKETELVAANSSSGGSTYYADSVKGRFTISRDNAKNTVYLQMNSLKPEDTAVYYCAAQYFLFTTPYRYAPRMGYWGQGTQVTVSS | high polyreactivity
QVQLLESGGGLVQAGGSLRLSCAASGSIFGINAMGWYRQAPGKERELVAAISGSTSRTYYADSVKGRFTISRDNAKNTVYLQMNSLKPEDTAVYYCAVVGLRSVTRRSYYWGQGNQVTVSS | high polyreactivity
QVQLLESGGGLVQAGGSLRLSCAASGSIFNRYAMGWYRQAPGKERELVAAISSTGSTYYADSVKGRFTISRDNAKNTVYLQMNSLKPEDTAVYYCNAEATHDWLRVDTYEDWGQGTQVTVSS | low polyreactivity
QVQLLESGGGLVQAGGSLRLSCAASGSIFYRYAMGWYRQAPGKEREFVAAISGSGSSTYYADSVKGRFTISRDNAKNTVYLQMNSLKPEDTAVYYCAARWRYYGSFDYWGQGTQVTVSS | high polyreactivity

Sequence | polyreactivity (PSR sort gate)
QVQLLESGGGLVQAGGSLRLSCAASGSIFYWNAMGWYIQARGKERELLAAINYSGDSTYDADSVKGAFTISRDNAKNTVYLQMNSLKPEDTAVYYCNFDYWGQGTQVTVSS | low polyreactivity
QVQLLESGGGLVQAGGSLRLSCAASGSTFDDNAMGWYRQAPGKERELVAGISDGDDSTNYADSVKGRFTISRDNAKNTVYLQMNRLKPEDTAVYYCNARYVRTYGVRFGYDYWGQGTQVTVSS | low polyreactivity
QVQLLESGGGLVQAGGSLRLSCAASGSTFDSYEMGWYRQAPGKERELVAGISYSSDRTYYADSVKGRFTISRDNAKNTVYLQMNSLKPEDTAVYYCAKDHTGTVQYPLDYWGQGTQVTVSS | low polyreactivity
QVQLLESGGGLVQAGGSLRLSCAASGSTFKSYAMGWYRQAPGKERELVAAISGRGGSTYYADSVKGRVTISRDNAKNTVYLQMNSLKPEDTAVYYCNALGSQRYDYWGQGTQVTVSS | high polyreactivity
QVQLLESGGGLVQAGGSLRLSCAASGSTFRSYAMGWYRQATGKERELVAAISGRGGNTYYADSVKGRFTISRDNAKNTVYLQMNSLKPEDTAVYYCARKTVYYGSDYWGQGTQVTVSS | high polyreactivity
QVQLLESGGGLVQAGGSLRLSCAASGSTFTKYDMGWYRQAPGKERELVAAIRSGGDTNYADSVKGRFTISLDNAKNTVYLQMNSLNPEDTAVYYLAAARGPTNHTSYPWYEYDYWGQCTQVTVSS | low polyreactivity
QVQLLESGGGLVQAGGSLRLSCAASGSTIVSYDMGWYRQAPGKERELVAAITYDGDSTYYADSVKGRFTISRDNAKNTVYLQMNSLKPEDTAVYYCAAEPGEDLKFRGGFEYWGQGTQVTVSS | low polyreactivity
QVQLLESGGGLVQAGGSLRLSCAASGYTFQIKAMGWYRQAPGKERELVAAITSGGRTYYADSVKGLFTISRDNAKNTVYLQMNSLKPEDTAVYYCNKVPRRGVDYWGQGTQVTVSS | low polyreactivity
QVQLLESGGGLVQAGGSLRLSCAPSGRTFVFNGRGWYRPATAKERELVAAINRSGGSTYYAVSVKGRFTISRDNGKNTVYLQMNSLKPEDTAVYYCLIQHNGLGYWGQGTQVTVSS | low polyreactivity
QVQLLESGGGLVQAGGSLRLSCAPSGSTFGYYAMGWYRPAPGKERELVAAITSGGRTYYADSVKGRFTISRDNAKNTVYLQMISLKPEETAVYYFAAIYRTYNKFDYWGQGTQVTVSS | high polyreactivity
QVQLLESGGGLVQAGGSLRLSCASSGRTFLTNAMGWYRQAPGKERELVAVITDGDTTYADSVKGRFTISRDNAKNTVYLLMNSLKPEDSAVYYCAADENYWSAGYDSWGLGTQVTVSS | low polyreactivity
QVQLLESGGGLVQAGGSLRLSCDASGFTFVAYAMGWYRQAPGKERELVAVISRGGSTYYADSVKGRFTISRDNAKNTVYLQMNSLKPEDTAVYYCAATFIHSYGKFFYWGQGTQVTLSS | low polyreactivity
QVQLLESGGGLVQAGGSLRLSCSASGITFFVYDMGWYRQAPGKERDLVAAITWAGDSTYYADSVKGRFTISRDNAKNTVYLQMNSLKPEDTAVYYCAAQFDVYYSRQPYDYNRSGYWGQGTQVTVSS | low polyreactivity
QVQLLESGGGLVQAGGSLRLSFAASGLTLGAYAMVWYRQAPGKERELVAAITNGGSTDYADSVKGRFTISRDNAKITVYLQMNSLKPEDTAVYYCAKDISRPDRGMDYWGQGTQVTVSS | low polyreactivity
QVQLLESGGGLVQAGGSLRLTCAASGSTFPDYAMGWYRQAPGKEREFVASITWSDGSTYYADSVKGRFTISRDNAKNSVYLQMNRLKQEDTAVYYCNADYVYYYIPVVYEYDYWGQGTQVTVSS | high polyreactivity
QVQLLESGGGLVQAGGTLPLSCAASGRTFKYYAMGWYRQAPGKERELVAGISSTGRTNYADSVKGRFTISRDNAKNTVYLEMNSLKPEDTAVYYCNAERKSFGKFVYWGQGTLVTVSS | high polyreactivity
QVQLLESGGGLVQAGGTLRLSCAASGSTFAKYGMGWYRQAPGKERELVAAISRSGGRTYYADSVKGRFTISRDNAKNTVYLQMNSLKPEDTAVYYCATDGIRLTRHRDYDYWGQGTQVTVSS | low polyreactivity
QVQLLESGGGLVQSGGSLRVSCAASGRNFGRYDMGWYRQAPGKERELVATISSRGGNTYYADSVKGRVTISRDNAMNTVYLQMNSLTPDDTAVYYCAAQTYKWYDWGQGTQVTVSS | high polyreactivity
QVQLLESGGGLVQSGGSLRVSCAASGSTFYAYSMGWYRQAPGKERELVAALDSGGSTYADSVKGRFPISRANAKHTVYLQMNSLKPEETAVYYCAADLITRSDYWWTGWIWEYDYWGQGTQVTVSS | low polyreactivity
QVQLLESGVGLVQAGGSLRLSCAASGFTFGYYAMGWYRQAPGKETELVAAISSSDGSTYYADSVKGRFTISRDNAKNTVYLQMNSLKPEDTAVYYCAAEYYSAVYIDEYWYDYWGQGTQVTVSS | high polyreactivity
QVQLLESGVGLVQAGGSLRLSCAASGNTFYHYAMGLYRQAPGKERELVAAISLSGGSTYYADSVKGRFTISRDNAKNTVYLQMNSLKPEDTAVYYCAADIFYYSSSYGYWGQGTQVTVST | low polyreactivity
